Measurements taken from patent US20130280271A1 (INSTITUTE FOR CANCER RESEARCH, published 2013).

Target: the molecule itself
Assay: static light scattering; self-association
Method: Light scattering analysis. Measurements were made with a Protein Solutions DynaPro Temperature Controlled Microsampler. Samples were adjusted to the desired concentration and particulates removed by filtration through a 0.2μ microcon device, and subsequent clearing by brief centrifugation at 14,000×g and 4° C. The protein concentration was then determined directly using absorbance at 280 nm and a calculated molar extinction coefficient, taking the average of 3 readings. All samples were analyzed under conditions of 10° C. in a buffer of 25 mM BisTris pH 6.1, 500 mM NaCl, 1 mM DTT, 0.1 mM EDTA, 5% glycerol. The molecular mass (MW I) was calculated from the static light scattering measurements (at least 300 acquisitions per protein sample) using the DynaPro software.

B1: ASV IN(1-207) (enzyme)
chain: PLREAKDLHTALHIGPRALSKACNISMQQAREVVQTCPHCNSAPALEAGVNPRGLGPLQIWQTDFTLEPRMAPRSWLAVTVDTASSAIVVTQHGRVTSVAAQHHWATAIAVLGRPKAIKTDNGSCFTSKSTREWLARWGIAHTTGIPGNSQGQAMVERANRLLKDKIRVLAEGDGFMKRIPTSKQGELLAKAMYALNHFERGENTKT
notes: also called IN fragment that lacks the CTD
binding result: no binding (tested: 1.5 mg/ml)
